Source: patent US20120213761A1 (MEDIZINISCHE UNIVERSITAET WIEN, published 2012)

Biological target: T1, tumor necrosis factor receptor-associated factor 2 (TRAF2), endogenous, in human cardiac tissue (human, UniProt Q12933 2-501)
T1 construct: Immunoprecipitated from human cardiac tissue or tissue culture lysates with a TRAF2 antibody (BD Pharmingen)
T1 sequence (looked up): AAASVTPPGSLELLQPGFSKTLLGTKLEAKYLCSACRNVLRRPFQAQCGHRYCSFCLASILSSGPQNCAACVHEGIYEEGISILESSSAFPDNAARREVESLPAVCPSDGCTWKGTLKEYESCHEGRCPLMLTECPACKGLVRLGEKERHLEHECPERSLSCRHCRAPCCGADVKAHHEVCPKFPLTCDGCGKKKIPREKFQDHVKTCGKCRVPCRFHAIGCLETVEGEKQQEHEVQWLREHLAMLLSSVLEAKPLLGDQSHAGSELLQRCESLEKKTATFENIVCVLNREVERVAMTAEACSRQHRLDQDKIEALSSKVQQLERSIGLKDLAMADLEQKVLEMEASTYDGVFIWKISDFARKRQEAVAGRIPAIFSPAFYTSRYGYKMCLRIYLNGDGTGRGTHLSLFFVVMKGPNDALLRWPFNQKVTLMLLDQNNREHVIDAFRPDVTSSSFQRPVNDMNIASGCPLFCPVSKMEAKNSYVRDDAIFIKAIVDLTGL
Assay: co-IP of LV myocardial lysates, Western blot (FIG. 2A)
Protocol: Human cardiac tissue was lysed in the lysis buffer containing 20 mM Tris (pH 7.5), 135 mM NaCl, 2 mM ethylenediaminetetraacetic acid (EDTA), 2 mM dithiothreitol (DTT), 25 mM β-glycerophosphate, 2 mM sodium pyrophosphate, 10% glycerol, 1% Triton X-100, 1 mM sodium orthovanadate, 10 mM NaF and 1 mM phenylmethylsulfonyl fluoride (PMSF) supplemented with complete protease inhibitor cocktail (Roche Applied Science, Indianapolis, Ind., USA) at 4 C as described (Aharinejad et al., 2005). Lysates were centrifuged (15 000 g) at 4 C for 15 min. For identify GSTP1-TRAF2 complexes formation proteins (500 μg) were immunoprecipitated with TRAF2 antibody (0.5 μg, BD Pharmingen, San Diego, Calif.). […]
Protein lysates (50 μg/lane) were separated by SDS-PAGE (10%) prior to electrophoretic transfer onto a Nitrocellulose membrane (Bio-Rad, Hercules, Calif.) as described (Aharinejad et al., 2005). […] Protein loading was assessed by Ponceau S staining and immunodetection was performed by chemiluminescence (Supersignal-West-Pico, Pierce, Rockford, Bands were quantified by ImageQuant software and specific protein signals were normalized to loading controls and expressed as arbitrary units. The average value of three measurements in each sample was used for data analysis.

B1: Glutathione S-transferase P1 (GSTP1), endogenous, in human left ventricular myocardial lysates (enzyme)
chain: PPYTVVYFPVRGRCAALRMLLADQGQSWKEEVVTVETWQEGSLKASCLYGQLPKFQDGDLTLYQSNTILRHLGRTLGLYGKDQQEAALVDMVNDGVEDLRCKYISLIYTNYEAGKDDYVKALPGQLKPFETLLSQNQGGKTFIVGDQISFADYNLLDLLLIHEVLAPGCLDAFPLLSAYVGRLSARPKLKAFLASPEYVNLPINGNGKQ
notes: also called GST-pi; GSTP1-1
B1: binds.
